Laboratory results from the supplement of paper PMC9170038.

Test system: MS2 coat protein
Assay: apparent KD of MS2 coat protein; higher = weaker reporter binding
Details: Eterna round: R107
Procedure, shortened: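 With or without constant ligand, designed RNA switches in 100 mM Tris-HCl pH 7.5, 80 mM KCl and 4 mM MgCl2 were titrated with SNAP-549-labelled MS2 coat protein. Concentrations went up in twofold steps from 0.7 or 1.5 nM to 3 µM. The switches had been transcribed on-chip from Illumina sequencing clusters, and apparent KD is the per-design median of normalised cluster binding-curve fits.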

[1] = input ligand: theophylline 20 uM
[2] = input ligand: theophylline 2 mM
[3] = input ligand: tryptophan 2.4 mM

Sequence	apparent KD of MS2 coat protein (input ligand: arginine 13.2 mM) [nM]	apparent KD of MS2 coat protein [1] [nM]	apparent KD of MS2 coat protein [2] [nM]	apparent KD of MS2 coat protein (input ligand: none) [nM]	apparent KD of MS2 coat protein [3] [nM]
CCUAUGCAGUCGGCCGCCACUGAACAUGAGGAUCACCCAUGUUAUUAUAAAUAUGGUCCUAAAAUCAGGACCGGGACUGUAUAGG [Ex Tryptophan B 8]	42.7	67.9	90		
CCUCAAUAGACGGCCGCCACUGAAACAUGAGGAUACAUGAGGAUCACCCAUGUGGGUGUGUUACGCAGGACCGGGUCAAGACCCG [Tryp B SS t1]	304	435	1280		
CCUCACGAAAUCGAUGAAAGCAUGUGGCACCGAGGACCGGUACGGCCGCCACUCGCAUCCACACAUGAGGAUCACCCAUGUAAGA [theeternabot_exclusion_MS2_Trp_A_9]	27.3	37.6	59.6		
CCUCAUGAACAUGAGGAUCACCCAUGUACACGAGGACCGGUACGGCCGCCACUCGAAUAACCUUAAUAUAAAUAAUAAUAAAAGG [5' end split MS2]	14.5	21.5	19.1	16.7	45.5
CCUUAAUAUAGAAGGAGCGCGCUAACAUGAGGAUCACCCAUGUAAAGGGUUUUUGGCUUAGCGCAGGUAGGUCGCUAUAAGAACC [Arg B Ex t1]	74	162	131	128	134
CGACACAUGAGGAUCACCCAUGUAAUGACGCGAGGACCGGUACGGCCGCCACUCGCAUGCCAAUGAGCGCAUGCGGCCUGGGUAU [Exclusion Tryp A GF6]	17.5	23.6	19.5		
CGACUACAGCGUGAUACCAGUGACAGAUACCAGUCUAGACAUGAGGAUCACCCAUGUACGCGCCCUUGGCAGCACACUAGAUCGA [#29 Same State - Theophylline B]	36.7	128			83.2
CGAUCUUUCGAAAGAAGGAUCUUGUCUGAUACCAGAGACGAAAGUCUCCCUUGGCAGCAGUGCCAACAUGAGGAUCACCCAUGUU [Theophylline A 11]	16	17.6			15.5
CGCAACAUGAGGAUCACCCAUGUAAUGACGCGAGGACCGGUACGGCCGCCACUCGCCUGCCAAUGAGCGCAUGCGGCCUGGGUAU [Exclusion Tryp A GF7]	11.9	16.1	13.5		
CGCCACUCGAGUGAUCCUCACGAGUGGCUACGAGGACCGGUACGGCCGCCACUCGAAUUAACAUGAGGAUCACCCAUGUAAUCCA [Brourdmod09]	21.1	217	400		
CGGUAACCACAUGAGGAUCACCCAUGUGAAGGAGCGGCGAAUAAGCCAGGUAGGUCGCGCAUGAAUAAAUCAUGUAGGUGCCGAA [XArg-A 15 NuPack]	31.2	69.7	156	48.4	99.8
CGGUAACCACAUGAGGAUCACCCAUGUGAAGGAGCGGCGAAUAAGCCAGGUAGGUCGCGCAUGAAUAAAUCAUGUUGGUGCCGAA [XArg-A 16 NuPack]	31.9	121	64.5	45.7	31
CGGUACAUGAGGAUCACCCAUGUGUCGGAUACCAGAGAGCCGUCUCUCCCUUGGCAGCUGGUUUUACAUGAGGAUCACCCAUGUG [Exclusion Theophylline A GF20]	12.5	15.2			12.6
CGGUCGGUCGGCCGGUGAUUAUGGGAUGAAGGAGCGUGGGAAGCUACAGGUAGGUCGCAUCCGAAACAUCACGAUCACGGAUGUU [SSArg A #26Alt-Ms2 Mod]	46.3	134	101		72.4
CGUCGAGACUGAAGGAGCGAGAUAACAACAUUGGGUCUCAACACAUGAGGAUCACCCAUGUCUCAGGUAGGUCGCGGUGUCACCG [Exclusion Arginine B GF21]	142	211	150	195	132
CGUGGUGGGACGGAUACCAGCCACCGCGGCAACGCAACAUGAGGAUCACCCAUGUUGGGUGGCCCUUGGCAGCUGUCCUGCGGCG [#1 Same State - Theophylline B Attempt #26 (HarryS)]	9.91	15			11.4
CGUGUCGUAACUGAUACCAGUGUACUGACAUGAGGAUCACCCAUGUUGGGUUUUGUUGUACACCCUUGGCAGCAGAAUCGAUACG [AstrosExyTheB#7]	46.3	94			75.1
CUAGGAAACUAGUAAGGGUGGUAUUGAGAUACCAGUACAGAAAUGUACCCUUGGCAGCUCACUGCAACAUGAGGAUCACCCAUGU [Ex Theophylline A 12]	22.5	29.3			27
CUAUAAUAUAGAAGGAGCGUCGAAAAUGGGUAAACAUGAGGAUCACCCAUGUAAAGGGAACGACAGGUAGGUCGCUAUAUUAUAG [AstromonsSSArgB#12]	181	237	305	228	223
CUCUGAGUCCGCAAGGACUCAGAGGCGGAUACCAGCGAGGUCCAUCGCCCUUGGCAGCCGAACAUGAGGAUCACCCAUGUCGGUA [#1 Same State - Theophylline A Attempt #27 (HarryS)]	8.89	14.5			10.9
